A protein production outcome set (Wang et al. 2014)

Test: label from the status in PepcDB records
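Note: failed if final PepcDB status was selected cloned or expressed and not failed if soluble or beyond.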

## MNMKKIFKRTSLLLATALIGVTATVQAQKSPQDMDRFIDALMRRMTVEEKIGQLNLPVTGEITTGQAKSSDVAKKIEQGLVGGLFNLKGVAKIRDVQKLAVENSRLGIPLLFGMDVIHGYETIFPIPLGLSCTWDMAAIEQSARIAATEASADGISWTFSPMVDISRDPRWGRVSEGSGEDPFLGGAIARAMVLGYQGKDPDDQLKRNDEIMACVKHFALYGAGEAGRDYNTVDMSRNRMFNEYMYPYEAAVRAGVGSAMASFNEVDGVPATANHWLMTDVLRKQWGFNGFVVTDFTGISEMVEHGIGNLQTVSTRALNAGVDMDMVSEGFVGTLKKSLTEGKITMKTLDAACRRILEAKYKLGLFDDPYKYCDLSRPARDIFTREHRAAARRIAAESFVLLKNEPFEGQGKKSSRPVLPLEKQGTVAVIGPLGNTRSNMPGTWSVAARLDDYPSLYEGLKEMTASRVNITYAKGSNLISDAAYEERATLFGRSLNRDNRTDKKLLDEALKVASGADVIVAALGESSEMSGESSSRTDLGIPDVQRTLLEALLKTGKPVVLTLFTGRPLTLTWEQEHVPAILNVWFGGSEAAYAIGDVLFGDVNPSGKLTMTFPKNVGQIPLFYNHKNTGRPLAEGKWFEKFRSNYLDVDNEPLYPFGYGLSYTTFRYSDIALSTPVMGQNGSTTAVVTVTNTGKRDGAEVVQLYIRDLVGSITRPVRELKGFEKVFLKAGESKTVSFKITPELLRFYDYDLNHVAEPGDFDVMIGGSSQAEKTARLTLK
  protein production: failed

## MDEPVRTFPITWLADYVMEDEGFSSREDINDLLMKEGFPLEPDLFMLTEIARKGIIEVTSSRDYSPEYALFLNLTFRDGSALNSRKVKVAWSEVCSPKQEGGLGLRSIAEANKVCVLKLIWRILSARRSLWVELVKKYLIRRGSFWLVKENTTCGSWIWKKILKYRDTAKSFYRVEVRNGEASSFGFDRWSEMGCLYDRLGARGCIDLGSPMTATVGEVMAGARRRKYRVAILNQVENEIVKQKLIRSNETDVALWNGKHDHYRKEFHTKETWLQIRTAKLLMENYNGIWFKHSTPKYSLITWLVQKNRVATGDKLIKWNPQVTPNCILCQHTLETWDHLFFMCPYSFQVWTKLAKGILHASFTANWTETLKLIHDNRLSKTKCFIVGYIFQNAIHSL
  protein production: failed

## MAFWAGGSPSVVDYFPSEDFYRCGYCKNESGSRSNGMWAHSMTVQDYQDLIDRGWRRSGKYVYKPVMNQTCCPQYTIRCRPLQFQPSKSHKKVLKKMLKFLAKGEVPKGSCEDEPMDSTMDDAVAGDFALINKLDIQCDLKTLSDDIKESLESEGKNSKKEEPQELLQSQDFVGEKLGSGEPSHSVKVHTVPKPGKGADLSKPPCRKAKEIRKERKRLKLMQQNPAGELEGFQAQGHPPSLFPPKAKSNQPKSLEDLIFESLPENASHKLEVRLVPVSFEDPEFKSSFSQSFSLYVKYQVAIHQDPPDECGKTEFTRFLCSSPLEAETPPNGPDCGYGSFHQQYWLDGKIIAVGVIDILPNCVSSVYLYYDPDYSFLSLGVYSALREIAFTRQLHEKTSQLSYYYMGFYIHSCPKMKYKGQYRPSDLLCPETYVWVPIEQCLPSLENSKYCRFNQDPEAVDEDRSTEPDRLQVFHKRAIMPYGVYKKQQKDPSEEAAVLQYASLVGQKCSERMLLFRN
  protein production: failed

## MLRCSHSKGVNYINFSATGKLLVSVGVDPEHTITVWRWQEGTKVASRGGHLERIFVVEFRPDSDTQFVSVGVKHMKFWTLAGSALLYKKGVIGSMEAARMQTMLSVAFGANNLTFTGAINGDVYVWKEHFLIRLVAKAHTGPVFTMYTTLRDGLIVTGGKERPTKEGGAVKLWDQEMKRCRAFQLETGQLVECVRSVCRGKGKILVGTKDGEIIEVGEKSAASNILIDGHMEGEIWGLATHPSKDMFISASNDGTARIWDLADKKLLNKVNLGHAARCAAYSPDGEMVAIGMKNGEFIILLVNSLKVWGKKRDRKSAIQDIRISPDNRFLAVGSSEHTVDFYDLTQGTSLNRIGYCKDIPSFVIQMDFSADSKYIQVSTGAYKRQVHEVPLGKQVTEAMVIEKITWASWTSVLGDEVIGIWPRNADKADVNCACVTHDGLNIVTGDDFGLVKLFDFPCTEKFAKHKRYFGHSAHVTNIRFSYDDKYVVSTGGDDCSVFVWRCL
  protein production: failed

## MPHPNRTFKIVIAPDSFKSTATTSQAAAFIAEGIQAAVQSNECEGINVEITTVPMADGGEGTSSCFEGIDITLPTTDANGRLTEATYRFDPQSETAYIDVAAASGLPAVEDELRPLTADTYGTGVLIADAQTRGARR
  protein production: not failed

## MGVNMEVCVVKPTSVDDSREITETLLAGRTVILNLEGMDLEIAQRIIDFISGATFAISGNLQKISNYIFLVTPTNVDILEHHHHHH
  protein production: failed

## MHNSIMNKVAVIGLGNIATRHRRNLKSLFPNVELLVMSASGRIPTEEISDSDGIVTSIEALIEANVELVIVASPAPFHAQHSIPLIEAGIPTLIEKPVTTTREDANAIKKALNEHGTPVAIGYCLRYLPSAQKLKILLDHKAIGTLYNAHIEIGQYLPDWRPSKNYRECVSANEKLGGGALFELSHELDYAQWLLGPLALQHAILRSSDELDLQVEDMADILTLTESGAVASIHLDFLQRKAHRQCSFIGSEGRIDWDLIQNQLTLTTAAEAKVIYSEPEWDKNQMYLAMVTDFIQMIKQQPHNCIAVTDASFTVDLISQIKQKAY
  protein production: failed

## MTKVLFVKANNRPAEQAVSVKLYEAFLASYKEAHPNDTVVELDLYKEELPYVGVDMINGTFKAGKGFDLTEEEAKAVAVADKYLNQFLEADKVVFGFPLWNLTIPAVLHTYIDYLNRAGKTFKYTPEGPVGLIGDKKIALLNARGGVYSEGPAAEVEMAVKYVASMMGFFGATNMETVVIEGHNQFPDKAEEIITAGLEEAAKVANKF
  protein production: not failed

## MNSMAKKDNLTEELKKHFGFDTFKGNQRAIIENVLAGNDTFVLMPTGGGKSLCYQLPSLMMQGTAIVISPLIALMKNQVDAMRNFSEEDGVAHFINSSLNKSAIDQVKDDIRNGRTKLLYVAPESLTKDENVEFLRQVNISFYAVDEAHCISEWGHDFRPEYRRIRPIINEIGKRPLIALTATATPKVQHDIQKNLGMIDASVFKSSFNRSNLYYEIRPKTANIDREIIKYIKSNEGKSGIIYCLSRKKVEEFADILKANGIKALPYHAGMDSQQRSSNQDAFLMEKADVIVATIAFGMGIDKPDVRYVIHYDIPKSLEGYYQETGRAGRDGGEGQCIAFYAYKDLQKLEKFMQGKPVAEQEIGKQLLLETAAYAETSVCRRKVLLHYFGEEYLEENCGNCDNCLNPKKKVEAKELLSAVLEVVGTLKEKFKAEYIVNMLVGNETSEIQSYKHNELEIFGSGSDEEEKTWNAVIRQALIAGYLAKDIENYGLLKITEKGKEFIKKPVSFKITEDNEFDEEEEEVPVRGGAACAVDPALFSMMKDLRKKLSKRLEVPPFVIFQDPSLEAMATTYPVTLEELQNIPGVGAGKAKRYGKEFIELIKRHVEENEIERPEDLRVRTVANKSKLKVSIIQRIDRKVALDEIAMTNGLEFNELLDEIEAIVYSGTRINIDYFLNDVMDEDHIDDIYEYFKDSETDDLEDAIEELGGDYTEEEIRLVRIKFLSEMAN
  protein production: failed

## MSTASGITMASMSTYAILGCGSVGHAVAEELVEEGKDVLILDADEGRVEALRDQDLNAQQADICETDVAQTVADRDVVLIMSPDVNANAEAVRNIRESGGEQFIVARADDPVSADDLTELGADVVINPSAVIADSALRALETGELEYKASQLGDVIDGTEERMAILIHRSPDPDSIASAAALRAIAASRDVDADIIYEGEIGHQENRAFVNLLGIELTSNEDVNLDEYDTFALVDVAKGGEPAVESVDIVIDHYEHEHELEHDAAFSDIRPNISATSTILTKYIQELDLNLDQSVATALLYGIRAETLDFKRDTTPADLTAAAYLYPFADHDTLEQVESPSMSPETLDVLAEAIRNREVQGSHLVSNAGFIRDRDALAQAAQHLLNLEGITTTAVFAIADDTIYLAARSKDIRMNIGKVLSDAFGGMGETAGHSTDASVEIPLGIFTGLDTSDDNRDTLLELTEEAVKRKLFEAMGVDSSSSESSNGN
  protein production: not failed

## MDRMAVAEEQILLERVRRKIEEVNASGQSQLSPIQEHISFTLLIYAPLIDDELQQAYFKCSNECFEKRRKPEVTTNCVELCRVPVAKSQQQFDSDMAKFQDRMNRSLMVCQDKFEAAKLLNMNRIDAAKDMEGCVNDAAAALLGG
  protein production: failed

## MKMKHMKPYTTMKTVLSTLAIALAFGPLHNAQACTRILYETGNQSYISGRSMDWADPSAATALWVFPKGMKRDGTVGDNPIKWSAKYGSIIVSFYDAGTADGMNEKGLVANMLYLKEAKWGDATKAGKPTLTAGAWAQYFLDNYATVEEAVTAMANPPFTIIAPSLPNGDAAALHLSISDVNGDSAIFEYIDGKLVIHHGSQYKVMTNSPTFDQQLALNTYWQQIGGSKFLPGTINAADRFVRASYALSASPKYRDNDLALASVFSQIRAVSVPLGITDPDRPNLAMTLWRTFADHTAKIYYFESAVFPAVSWLDMSKVDLTEGAAPKVVRVERGQPLAGELSAALKPAEPFKWLGAE
  protein production: failed

## MNDLKRLPYEPVKGLLPRPAVGTSERVITLPEPDRTSGMPLMGTLWLRKSTREFDQQPLPLKQLSELLWAAAGVNRSLGGGRTAPSPYGETVIDVYVALPAGLYRYDPVHHCLELKRAADLRSMTGYQDFVGMAPLDLVFVANHGRMQEMPPKLRETFSAAAAGAMAENAYLYCASAGLGAVVRGWLNRRQLAEHMSLNEDEEPILSQTIGRAASHVTTTQA
  protein production: not failed

## MSTTGRIHSFESCGTVDGPGIRFIVFLQGCLMRCKYCHNRDTWDTHDGKEVTVEEIIAEAKSYRHFMNASGGGITCSGGEAMLQPEFVRDFFRAAHAEGIHTCLDTNGYIRKHTEVIDEVLDATDLVMLDIKHMKDEIHQDFIGVSNRRTLDFARYLHKIGQKTWIRYVVVPGYTDDPEAAHMLGEFIKDMDNIEKVELLPYHKLGAHKWEALGLEYPLEGVNPPSKETMDEIQSILSQYHSNVKYLEHHHHHH
  protein production: failed

## MFRQLKKNLVATLIAAMTIGQVAPAFADSADTLPDMGTSAGSTLSIGQEMQMGDYYVRQLRGSAPLINDPLLTQYINSLGMRLVSHANSVKTPFHFFLINNDEINAFAFFGGNVVLHSALFRYSDNESQLASVMAHEISHVTQRHLARAMEDQQRSAPLTWVGALGSILLAMASPQAGMAALTGTLAGTRQGMISFTQQNEQEADRIGIQVLQRSGFDPQAMPTFLEKLLDQARYSSRPPEILLTHPLPESRLADARNRANQMRPMVVQSSEDFYLAKARTLGMYNSGRNQLTSDLLDEWAKGNVRQQRAAQYGRALQAMEANKYDEARKTLQPLLAAEPGNAWYLDLATDIDLGQNKANEAINRLKNARDLRTNPVLQLNLANAYLQGGQPQEAANILNRYTFNNKDDSNGWDLLAQAEAALNNRDQELAARAEGYALAGRLDQAISLLSSASSQVKLGSLQQARYDARIDQLRQLQERFKPYTKMLEHHHHHH
  protein production: not failed

## RESVEKQKKLEAILVSMDSGVIAVDRKHKIIMINPYAEKIFGIDKNIIGQSLMDCIRNYEFEDIFNKRAEGYAEIKTSWPKERNLRIKTADIINGYECIGTVAVVQDIT
  protein production: failed

## TIDLNYQNKVESILKQYYGSELSSGRASFSEGMYAVAIEPSTGKVLAMAGLKNDHGNLVDDSLGTIAKNFTPGSVVKGATLSSGWENKVLRGNEVLYDQEIANIRSWFTRGLTPISAAQALEYSSNTYMVQVALRLMGQDYNTGDALTDRGYQEAMAKLRKTYGEYGLGVSTGLDLPESEGYVPGKYSLGTTLMESFGQYDAYTPMQLGQYISTIANNGNRLAPHVVSDIYEGNDSNKFAQLVRSITPKTLNKIAISDQELAIIQEGFYNVVNSGSGYATGTSMRGNVTTISGKTGTAETFAKNVNGQTVSTYNLNAIAYDTNRKIAVAVMYPHVTTDTTKSHQLVARDMIDQYISQFTGQ
  protein production: failed

## MLVNGKWTADWQPVQKADDHGRFVRQVSSFRNWITPDGSAGPTGTGGFAAEAGRYRLYVALICPWASRTLMARRLKGLDGLIPVTVVNPVMGTQGWEFGGHDDAEEDPLFGARHLHEIYTRAEPQFTGRATVPVLWDMKRDAMVNNESADILRMFDTAFEGLAPSDLRLYPAALAGEIDALNAQVYDRLNNGVYKAGFASTQEAYDEAVAGVFEMLDHLEYRLTGDYIFGGALTETDIRIFVTLIRFDAAYHGLFKTNRRQIADYPRLWAYMRRILARPGVRETVNMDHITRGYYSIKALNPSRIRPVGPAHIEAALRETAAGI
  protein production: not failed
